From paper PMC11021452, “Exposing the molecular heterogeneity of glycosylated biotherapeutics” (Nature Communications, 2024)
Where a chain is given by its changes, count along the chain named. Numbers in names are those of the source.

T1: IL-22 RA1 extracellular domain (ECD) (UniProt Q8N6P7 16-228)
T1 construct: Coated on the ELISA plate; also called IL22 receptor; IL22R1A
T1 sequence (looked up): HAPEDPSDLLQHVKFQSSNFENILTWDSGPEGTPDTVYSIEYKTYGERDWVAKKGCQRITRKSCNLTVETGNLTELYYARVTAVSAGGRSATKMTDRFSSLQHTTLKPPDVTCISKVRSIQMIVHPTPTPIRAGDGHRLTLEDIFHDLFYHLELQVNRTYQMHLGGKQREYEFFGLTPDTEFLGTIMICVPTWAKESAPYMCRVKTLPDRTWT

B1: enzymatically desialylated IL22-Fc (Fc fusion, UniProt Q9GZX6 34-179, looked up)
chain: APISSHCRLDKSNFQQPYITNRTFMLAKEASLADNNTDVRLIGEKLFHGVSMSERCYLMKQVLNFTLEEVLFPQSDRFQPYMQEVVPFLARLSNRLSTCHIEGDDLHIQRNVQKLKDTVKKLGESGEIKAIGELDLLFMSLRNACI
modifications: N-linked glycans with the sialic acids enzymatically removed
notes: IL22 cytokine of the IL22-Fc fusion UTTR1147A, same chain as m1; Same polypeptide as m1; differs only in the glycans; also called sialidase-treated IL22-Fc; source: IL22-Fc from cell culture fermentation, purified, then enzymatically desialylated
B2: IL22-Fc N21Q point mutant (Fc fusion, UniProt Q9GZX6 34-179, looked up)
chain: B1 chain with N21Q
modifications: N-linked glycans; the glycosylation site at N21 knocked out
notes: IL22 cytokine of the IL22-Fc fusion UTTR1147A with N21Q; Parent is m1; source: 10 day CHO cell culture fermentations, SP Sepharose Fast Flow ion exchange chromatography

Target: T1, IL-22 RA1 extracellular domain (ECD)
Experiment: ELISA; 96-well plate coated with IL-22 RA1 ECD; varying concentrations of IL22-Fc added in duplicate; bound IL22-Fc detected with goat anti-human IgG-HRP and TMB; potency by parallel curve program relative to the reference standard
Conditions: both partners purified

fold change in binding against control IL22-Fc [fold]	fold change in potency (binding ELISA) relative to wild type [fold]	Binder
~2		B1
	3.98	B2
